Where a chain is given by its changes, count along the chain named. Where two headings read alike, the source gives them in different places.
Legend:
HER2 on cells [1] = target: T1, HER2 on cells (human, UniProt P04626); assay: FACS, MCF7
HER2 on cells [2] = target: T1, HER2 on cells; assay: FACS, MCF7; remark: listed apart in the source
HER2 on cells [3] = target: T1, HER2 on cells; assay: FACS, WI-38
CD16a V158 = CD16a V158 (human, UniProt P08637); assay: SPR
HER2 ECD [4] = target: T2, HER2 ECD (human, UniProt P04626); assay: SPR
HER2 ECD [5] = target: T2, HER2 ECD; assay: SPR; remark: listed apart in the source

Chain of CD16a V158 (P08637 17-208 F176V): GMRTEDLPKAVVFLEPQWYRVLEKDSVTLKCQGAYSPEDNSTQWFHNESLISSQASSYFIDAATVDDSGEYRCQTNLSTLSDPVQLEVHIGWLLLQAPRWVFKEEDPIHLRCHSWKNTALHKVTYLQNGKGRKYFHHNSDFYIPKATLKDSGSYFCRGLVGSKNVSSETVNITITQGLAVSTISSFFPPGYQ

B1: v10000 (antibody)
chain 1: EVQLVESGGGLVQPGGSLRLSCAASGFTFADYTMDWVRQAPGKGLEWVGDVNPNSGGSIYNQRFKGRFTFSVDRSKNTLYLQMNSLRAEDTAVYYCARNLGPSFYFDYWGQGTLVTVSSASTKGPSVFPLAPSSKSTSGGTAALGCLVKDYFPEPVTVSWNSGALTSGVHTFPAVLQSSGLYSLSSVVTVPSSSLGTQTYICNVNHKPSNTKVDKKVEPKSCDKTHTCPPCPAPELLGGPSVFLFPPKPKDTLMISRTPEVTCVVVDVSHEDPEVKFNWYVDGVEVHNAKTKPREEQYNSTYRVVSVLTVLHQDWLNGKEYKCKVSNKALPAPIEKTISKAKGQPREPQVYVYPPSRDELTKNQVSLTCLVKGFYPSDIAVEWESNGQPENNYKTTPPVLDSDGSFALVSKLTVDKSRWQQGNVFSCSVMHEALHNHYTQKSLSLSPG
chain 2: not shown
chain 3: not shown
Kd (HER2 on cells [1]): 6.8 nM | Kd (HER2 on cells [2]): 3.7 nM | Kd (HER2 on cells [3]): 8.4 nM

B2: v7091 (antibody)
chain 1: B1 chain 1 with A30T, G49A, F70L
chain 2: not shown
chain 3: not shown
Kd (CD16a V158): 120 nM

B3: v7148 (antibody)
chain 1: B1 chain 1 with A30T, G49A, F70L
chain 2: not shown
chain 3: not shown
modifications: v7091 conjugated to SMCC-DM1
Kd (CD16a V158): 120 nM

B4: v10014 (antibody, V domains shown)
VH: EVQLVESGGGLVQPGGSLRLSCAASGFTFADYTMDWVRQAPGKGLEWVADVNPNSGGSIYNQRFKGRFTLSVDRSKNTLYLQMNSLRAEDTAVYYCARNLGPSFYFDYWGQGTLVTVSS
VL: DIQMTQSPSSLSASVGDRVTITCKASQDVSIGVAWYQQKPGKAPKLLIYSASYRYTGVPSRFSGSGSGTDFTLTISSLQPEDFATYYCQQYYIYPATFGQGTKVEIK
Kd (HER2 ECD [4]): 2.1 nM | Kd (HER2 ECD [5]): 2 nM

— patent publication US20230118302 (published 2023)
